The target in one assay is Cul1 (CFP)–Rbx1 (human) (UniProt Q13616). As to the kind of experiment: FRET or BRET.
The target of assay [1] is Nedd8 Cul1 (CFP)–Rbx1 (quantitatively neddylated) (UniProt Q13616). The experiment in a line: FRET or BRET.
Assay [2] has as its target SCF^Skp2 (unmodified) (human), Q13616.

These results are taken from PMC2644375.

Usually Kd stands for the free concentration of one partner at which half of the binding sites on the other are occupied at equilibrium, for simple one-to-one binding. Read a low Kd as tighter binding. Turning to “LG-labeled Cdc34 (from UniProt P49427 1-236) (enzyme)”, the Kd in the assay with Cul1 (CFP)–Rbx1 (human) amounted to 82 nM. This molecule yielded a fold lowering of Kd against unmodified Cul1 (CFP)–Rbx1 in assay [1] of 3 fold.

B1: Cdc34, P49427 1-236 (enzyme)
chain: MARPLVPSSQKALLLELKGLQEEPVEGFRVTLVDEGDLYNWEVAIFGPPNTYYEGGYFKARLKFPIDYPYSPPAFRFLTKMWHPNIYETGDVCISILHPPVDDPQSGELPSERWNPTQNVRTILLSVISLLNEPNTFSPANVDASVMYRKWKESKGKDREYTDIIRKQVLGTKVDAERDGVKVPTTLAEYCVKTKAPAPDEGSDLFYDDYYEDGEVEEEADSCFGDDEDDSGTEES
Consider B1, for which the Km for Cdc34 in ubiquitination of p27-Cdk2-CycE (multi-turnover, varying Cdc34) in assay [2] is 6.1 µM.
